The text below walks through data of the Human Domainome abundance scans (Beltran et al. 2025).

± gives the uncertainty stated by the source.

First the molecules themselves.
B1: POU domain, class 3, transcription factor 3, residues 408 to 463; numbered along this chain, P20264 (parent)
chain: KKRTSIEVSVKGALESHFLKCPKPSAQEITNLADSLQLEKEVVRVWFCNRRQKEKR

Variants of B1 are the subject of this data set. In words: abundance fitness (aPCA) (normalised: wild type 0, dead -1); higher = more abundant; growth selection in yeast, the domain comes from the species named. The following applies: Homo sapiens.
Consider E39A, for which the abundance fitness was -0.153 ± 0.069.
Under E39N stands 0.013 ± 0.13.
Consider E39M, for which the abundance fitness is -0.428 ± 0.11.
Regarding E39T, the abundance fitness is -0.074 ± 0.1.
Under A33K stands -0.981 ± 0.19; under A33T, -0.939 ± 0.16.
Consider A33Q, for which the abundance fitness was -0.931 ± 0.18.
With A33D the figure was -0.863 ± 0.13.
In the case of A33M, the abundance fitness is -0.823 ± 0.13.
Under A33F stands -0.941 ± 0.17; under A33H, -0.513 ± 0.22.
Under T30N stands -0.095 ± 0.099; under T30I, -0.035 ± 0.099; under T30K, -0.044 ± 0.1.
With T30A the figure was -0.028 ± 0.077.
For T4G, the abundance fitness was -0.077 ± 0.066.
Under T4V stands -0.095 ± 0.073; under T4F, -0.116 ± 0.18.
Under T4E stands -0.082 ± 0.16; under T4I, -0.014 ± 0.17.
Take A26W: the abundance fitness was -0.155 ± 0.083.
With A26V the figure was -0.1 ± 0.069; with C48E, 0.069 ± 0.13.
With C48G, the abundance fitness was -0.109 ± 0.073.
Under C48W stands -0.113 ± 0.083; under C48I, 0.045 ± 0.14; under I6G, -0.071 ± 0.071.
With I6E the figure was -0.091 ± 0.12; with I6Y, -0.189 ± 0.12.
With P22K the figure was -0.432 ± 0.48; with S25R, -0.398 ± 0.065; with I29S, -0.781 ± 0.15.
On to I29C, for which the abundance fitness was -0.574 ± 0.14.
For I29K, the abundance fitness is -1.07 ± 0.17.
With S35D the figure was -0.158 ± 0.13; with S35K, 0.162 ± 0.12; with S35A, -0.019 ± 0.079.
Under R3F stands -0.119 ± 0.15; under R51W, 0.018 ± 0.081.
Under R51A stands -0.105 ± 0.088; under R51Q, -0.164 ± 0.12.
As to L32S, the abundance fitness was -0.95 ± 0.13.
Under L32E stands -0.782 ± 0.13; under L32F, -0.556 ± 0.16; under R44W, -0.377 ± 0.43.
With R44V the figure was -0.224 ± 0.37.
Regarding E41Y, the abundance fitness was -0.625 ± 0.17.
With E41F the figure was -1.1 ± 0.39; with E41D, 0.037 ± 0.12; with E41W, -0.3 ± 0.089.
Under K11P stands -0.024 ± 0.12; under K11W, -0.116 ± 0.089; under Q37R, -0.072 ± 0.06.
Under Q37P stands -0.671 ± 0.13; under V8Y, -0.369 ± 0.21; under V8D, -0.075 ± 0.13.
Turning to V8A, the abundance fitness is -0.032 ± 0.097.
Under V8S stands 0.218 ± 0.092.
With V8K the figure was 0.068 ± 0.11.
Under V8C stands -0.171 ± 0.11.
On to V8E, for which the abundance fitness came to 0.088 ± 0.096.
Regarding E15S, the abundance fitness was -1 ± 0.3.
Under E15G stands -1.02 ± 0.23; under E15K, -0.582 ± 0.3.
Under L14C stands -0.662 ± 0.12; under L14I, -0.45 ± 0.2; under L14A, -0.8 ± 0.1.
With L14T the figure was -0.839 ± 0.12; with K23W, -0.084 ± 0.077; with K23S, 0.033 ± 0.069.
On to K23Q, for which the abundance fitness was -0.192 ± 0.12.
Turning to K23G, the abundance fitness is -0.252 ± 0.063.
With E28K the figure was -0.538 ± 0.13; with E28W, -0.59 ± 0.1.
Under E28Y stands -0.048 ± 0.18; under E28F, -0.573 ± 0.15.
As for L19K, the abundance fitness is -0.057 ± 0.091.
Take L19Q: the abundance fitness was found to be 0.002 ± 0.1.
In the case of L19D, the abundance fitness is -0.191 ± 0.11.
With L19P the figure was -1.09 ± 0.19; with L19Y, -0.288 ± 0.15; with L19W, -0.339 ± 0.074.
With L19F the figure was -0.346 ± 0.11.
With E7Q the figure was -0.035 ± 0.071; with E7F, -0.263 ± 0.063; with E7N, 0.063 ± 0.06.
Take E7H: the abundance fitness is -0.016 ± 0.057.
With E7V the figure was -0.197 ± 0.069; with E7R, -0.057 ± 0.063; with N49Q, 0.028 ± 0.13.
Under N49L stands -0.357 ± 0.083; under N49R, -0.278 ± 0.07; under N49T, -0.097 ± 0.12.
With N49G the figure was -0.279 ± 0.07; with N49K, -0.276 ± 0.15; with L36P, -1.03 ± 0.18.
In the case of L36A, the abundance fitness was -0.906 ± 0.092.
For the variant L36D, the abundance fitness was -1.02 ± 0.16.
With L36S the figure was -0.866 ± 0.12; with L36Y, -0.313 ± 0.11.
As for K1C, the abundance fitness was -0.104 ± 0.17.
With K53C the figure was -0.152 ± 0.11.
With K53H the figure was -0.194 ± 0.14; with K53F, -0.156 ± 0.15.
Under K53P stands -0.6 ± 0.13; under K53R, -0.044 ± 0.064.
As for K40M, the abundance fitness was -0.336 ± 0.16.
With E54H the figure was -0.432 ± 0.18; with E54G, -0.234 ± 0.079.
Under E54I stands -0.748 ± 0.18.
Under W46R stands -0.248 ± 0.22; under V45M, -0.06 ± 0.13; under V45Q, 0.052 ± 0.097.
V45S: the abundance fitness was 0.032 ± 0.064.
Under V45F stands -0.211 ± 0.11; under V45Y, -0.28 ± 0.14; under V45R, -0.109 ± 0.057.
With V45D the figure was 0.098 ± 0.15; with V42G, -0.339 ± 0.059.
With V42H the figure was -0.34 ± 0.18.
As to V42M, the abundance fitness worked out at 0.084 ± 0.14.
With V42N, the abundance fitness is -0.586 ± 0.25.
Turning to F18D, the abundance fitness is -0.568 ± 0.16.
With R50I the figure was -0.809 ± 0.22.
As to R50L, the abundance fitness is -0.739 ± 0.09.
With R50F the figure was -0.875 ± 0.18.
With R50N the figure was -0.919 ± 0.22; with G12E, 0.111 ± 0.091; with G12P, -0.056 ± 0.1.
Take G12M: the abundance fitness was 0.161 ± 0.11.
With G12I the figure was 0.051 ± 0.16; with G12K, -0.035 ± 0.15; with G12N, 0.11 ± 0.15.
Under K55V stands -0.031 ± 0.081.
With K55I the figure was -0.234 ± 0.15.
With K55S, the abundance fitness was -0.011 ± 0.098.
With K55C the figure was -0.14 ± 0.13.
With K55A the figure was -0.038 ± 0.098; with H17V, -0.069 ± 0.07.
Under H17P stands -0.807 ± 0.16.
For the variant H17G, the abundance fitness is -0.683 ± 0.074.
Under S9C stands -0.247 ± 0.097; under C21M, -0.314 ± 0.1; under C21T, -0.094 ± 0.1.
As to C21H, the abundance fitness was -0.031 ± 0.19.
For the variant Q27A, the abundance fitness was -0.049 ± 0.081.
Under Q27S stands -0.098 ± 0.073.
With S5W, the abundance fitness was -0.255 ± 0.089.
With K20D the figure was -0.197 ± 0.15; with K20F, -0.438 ± 0.12.
On to R56N, for which the abundance fitness was -0.143 ± 0.45.
Under R56A stands -0.046 ± 0.12; under R56V, -0.039 ± 0.081.
With R56P the figure was -0.226 ± 0.29; with R56G, -0.068 ± 0.086; with Q52L, -0.131 ± 0.078.
With Q52G the figure was -0.146 ± 0.074.
Consider L38A, for which the abundance fitness is -0.693 ± 0.074.
With L38G the figure was -0.943 ± 0.076.
For the variant S16A, the abundance fitness was -0.026 ± 0.089.
Under S16D stands 0.026 ± 0.11.
With A13D the figure was -0.355 ± 0.13.
With K2S, the abundance fitness is -0.077 ± 0.098.
With K2D the figure was -0.098 ± 0.14.
With V10M the figure was -0.192 ± 0.14.
V10G: the abundance fitness was -0.241 ± 0.066.
With V10L the figure was -0.042 ± 0.093.
